According to patent US20220112240:

Key:
[1] = test system: T1, D-2 FLAG (branched peptide; branching symbol printed as an image)
T1 sequence 1: FFKY
T1 sequence 2: DYKDDDDKG

[2] = test system: T2, L-2 FLAG (branched peptide; branching symbol printed as an image)
T2 sequence 1: XFKY
T2 sequence 2: DYKDDDDKG

For “enterokinase (ENTK), enzyme added in solution”, the “circular dichroism after ENTK cleavage of the branch” value [1] was “the cleavage of the branch results in largely β-sheet (D-1) and random-coil (FLAG-tag) like secondary structures ... as well as for those of D-2 FLAG and L-2 FLAGs” and the “circular dichroism after ENTK cleavage of the branch” value [2] was “the cleavage of the branch results in largely β-sheet (D-1) and random-coil (FLAG-tag) like secondary structures ... as well as for those of D-2 FLAG and L-2 FLAGs”.
